Key:
Pro-MMP-9 = Pro-MMP-9 (Homo sapiens, UniProt P14780); type: binding
MMP9 = MMP9 (Homo sapiens, UniProt P14780); test: cleavage of mAb by MMP-9 on overnight incubation; conditions: overnight incubations with 30 μM MMP9
[1] = target: T1, full length native MMP-2 secreted by HT1080 cells (Homo sapiens, UniProt P08253); test: immunoprecipitation of HT1080 conditioned medium and western blot; type: binding; conditions: HT1080 conditioned medium, not activated
T1 construct: full length native MMP-2 secreted by human fibrosarcoma (HT1080) cell cultures; endogenous in cells; host or cells: HT1080 human fibrosarcoma cells, conditioned medium
T1 sequence (P08253 30-660): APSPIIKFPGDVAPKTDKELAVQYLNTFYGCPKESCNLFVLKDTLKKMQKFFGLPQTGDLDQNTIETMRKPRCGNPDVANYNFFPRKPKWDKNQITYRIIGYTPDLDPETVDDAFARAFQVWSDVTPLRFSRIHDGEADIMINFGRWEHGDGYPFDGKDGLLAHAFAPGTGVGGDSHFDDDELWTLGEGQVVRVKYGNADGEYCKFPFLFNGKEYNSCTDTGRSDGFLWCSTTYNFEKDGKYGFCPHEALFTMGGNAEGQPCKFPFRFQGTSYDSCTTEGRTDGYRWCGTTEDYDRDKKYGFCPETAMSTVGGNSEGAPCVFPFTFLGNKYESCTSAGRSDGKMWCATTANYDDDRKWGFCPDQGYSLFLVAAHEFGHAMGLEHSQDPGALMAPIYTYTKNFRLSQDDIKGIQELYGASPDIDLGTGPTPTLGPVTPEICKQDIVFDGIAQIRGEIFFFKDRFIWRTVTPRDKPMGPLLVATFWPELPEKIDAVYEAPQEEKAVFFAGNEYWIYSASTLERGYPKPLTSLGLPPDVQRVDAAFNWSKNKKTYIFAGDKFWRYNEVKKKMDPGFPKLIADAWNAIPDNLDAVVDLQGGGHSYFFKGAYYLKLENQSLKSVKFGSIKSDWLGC
Method: HT1080 cells were seeded in petri dishes. After reaching 80% confluence, the medium (DMEM supplemented with 10% FCS, nonessential amino acids, penicillin, streptomycin, sodium pyruvate, and L-glutamine) was changed to serum free medium (without FCS). Following another 24 h of incubation, conditioned medium (CM) was harvested from the adherent cells and concentrated using Millipore Centricon-10 (Bedford, Mass.). Concentrated supernatants were used for immunoprecipitations. CM was incubated with anti-1 (CoTCPP) mAb (15 μg/ml) overnight at 4° C. […] Beads were washed 3 times with PBS, suspended in SDS sample buffer, and heated to 95° C. for 3 min Immunoprecipitates were recovered by centrifugation and subjected to SDS/PAGE. After separation, proteins were transferred to nitrocellulose (NC) membranes and probed with anti-MMP-2 antibody.
To activate ProMMP-2 produced by HT1080 cells, 1 mM of 4-aminophenyl mercuric acetate (APMA) was added to the concentrated CM followed by 6 h incubation in 37° C. After activation, the CM was dialyzed (×3) against PBS at 4° C., to remove APMA Immunoprecipitation with the activated medium was performed as described above.

[2] = target: Heme group within Hemoglobin (Homo sapiens, UniProt P68871+P69905); test: cross reactivity, competitive ELISA and immuno affinity assay, Hemoglobin; type: binding
Text: The selectivity of anti CoTCPP and anti Imisdp was further challenged, by testing their cross reactivity with non related zinc dependent enzymes—Carbonic Anhydrase (CA) and brockii alcohol dehydrogenase (TbADH). Similar to active MMPs CA contains a zinc ion that is tetrahedraly coordinated to three histidine residues and a water molecule, TbADH contains a catalytic zinc ion that is tetraheadrally coordinated to four different amino acid residues, histidine, cysteine, aspartate and glutamate. […] Anti CoTCPP mAb was also tested for its cross reactivity with related physiological porphyrins such as the Heme group within Myoglobin and Hemoglobin and vitamin.

Sequence of Heme group within Hemoglobin (P69905 2-142 limits assumed): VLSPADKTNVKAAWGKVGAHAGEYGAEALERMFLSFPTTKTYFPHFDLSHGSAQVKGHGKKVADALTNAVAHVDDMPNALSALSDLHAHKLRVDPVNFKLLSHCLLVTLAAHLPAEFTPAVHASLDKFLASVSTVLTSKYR
Sequence of Heme group within Hemoglobin (P68871 2-147 limits assumed): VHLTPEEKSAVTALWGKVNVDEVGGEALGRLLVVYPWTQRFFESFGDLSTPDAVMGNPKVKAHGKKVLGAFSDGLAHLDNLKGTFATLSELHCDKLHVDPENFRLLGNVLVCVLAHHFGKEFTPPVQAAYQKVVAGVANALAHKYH
Sequence of Pro-MMP-9 (P14780 20-707 limits assumed): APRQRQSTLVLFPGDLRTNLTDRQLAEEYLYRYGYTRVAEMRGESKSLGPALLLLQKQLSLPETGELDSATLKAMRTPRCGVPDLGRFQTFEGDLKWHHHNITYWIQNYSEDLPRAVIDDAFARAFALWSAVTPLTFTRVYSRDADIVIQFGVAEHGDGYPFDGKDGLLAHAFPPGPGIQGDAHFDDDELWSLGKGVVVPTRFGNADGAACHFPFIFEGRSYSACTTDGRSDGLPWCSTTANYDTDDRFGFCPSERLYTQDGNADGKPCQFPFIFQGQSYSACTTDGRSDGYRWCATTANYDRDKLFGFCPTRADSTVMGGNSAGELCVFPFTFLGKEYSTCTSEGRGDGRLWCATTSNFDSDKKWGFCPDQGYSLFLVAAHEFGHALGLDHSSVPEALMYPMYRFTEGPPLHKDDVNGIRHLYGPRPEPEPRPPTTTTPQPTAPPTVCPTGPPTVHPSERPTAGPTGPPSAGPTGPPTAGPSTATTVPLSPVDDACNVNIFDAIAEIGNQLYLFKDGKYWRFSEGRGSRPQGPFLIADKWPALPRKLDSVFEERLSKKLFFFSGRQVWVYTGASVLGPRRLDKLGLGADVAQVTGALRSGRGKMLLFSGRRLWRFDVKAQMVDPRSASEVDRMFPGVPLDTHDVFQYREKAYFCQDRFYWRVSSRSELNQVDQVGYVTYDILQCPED
Sequence of MMP9 (P14780 94-707): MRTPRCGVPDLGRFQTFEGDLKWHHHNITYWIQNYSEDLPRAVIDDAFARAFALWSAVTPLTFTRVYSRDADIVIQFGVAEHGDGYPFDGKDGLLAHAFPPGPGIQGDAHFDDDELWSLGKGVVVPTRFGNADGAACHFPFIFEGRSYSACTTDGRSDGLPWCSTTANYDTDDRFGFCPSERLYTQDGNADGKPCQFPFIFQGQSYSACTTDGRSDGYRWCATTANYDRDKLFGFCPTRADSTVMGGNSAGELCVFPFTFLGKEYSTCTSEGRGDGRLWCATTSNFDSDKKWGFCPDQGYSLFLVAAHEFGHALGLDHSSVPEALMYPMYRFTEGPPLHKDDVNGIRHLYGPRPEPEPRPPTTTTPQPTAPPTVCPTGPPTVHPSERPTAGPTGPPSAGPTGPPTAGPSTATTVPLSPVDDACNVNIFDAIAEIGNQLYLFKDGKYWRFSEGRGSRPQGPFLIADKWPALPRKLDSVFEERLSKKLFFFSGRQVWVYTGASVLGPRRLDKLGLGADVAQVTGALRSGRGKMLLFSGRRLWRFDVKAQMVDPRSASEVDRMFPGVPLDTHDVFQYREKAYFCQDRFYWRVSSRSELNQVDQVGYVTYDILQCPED

| Molecule | binding to Pro-MMP-9 (Pro-MMP-9) | cleavage of mAb by MMP-9 (MMP9) | binding to Pro-MMP-2 [1] | cross reactivity with Hemoglobin [2] |
| --- | --- | --- | --- | --- |
| 6C6: monoclonal antibody, IgG2a, raised against the hapten Imisdp; MMP-2 and MMP-9 inhibitory; SEQ ID NO: 1 (protein, 6c6 mAb light chain) CMETTQTPLSLPVSLGDQASISCRSSQSIVHSNGNTFLEWYLQKPGQSPKLLIYKVSNCRFSGVPDRFSGSGSGTDFTLKISRVEAEDLGVYYCFQASHVPPTFGGG | did not bind | not cleaved | – | – |
| 13E11: monoclonal antibody, IgG2b, raised against the hapten CoTCPP (antibody, V domains shown, 13E11 mAb heavy chain; 13E11 mAb light chain, monoclonal antibody, IgG2b, raised against the hapten CoTCPP) VH: EGGGLVQPGGSRKLSCAASGFTFTSFGMHWVRQAPEKGLEWVAYISSGNEIIYYADTVKGRFTISRDNPKNTLFLQMTSLRSEDTAMYYCARNYYRYGFYVMDYWGQG VL: EIVVTQSPAILSASPGEKVTMTCRASSSVSYMHWYQQKPGSSPKPWIYATSNELASGVPARFSGSGSGTSYSLTISRVEAEDAATYYCQQWISNPLTFGAG | – | – | but not Pro-MMP-2 | No cross was detected |

From patent US9902783B2, “Antibodies and pharmaceutical compositions containing same useful for inhibiting activity of metalloproteins” (Yeda Research and Development Co. Ltd., priority 2007, dated 2018)
